In patent US20240116985A1 (published 2024) one finds IC50 data, which are given here for 18 molecules.

One may read the IC50 as the concentration that inhibits the measured activity by half.

Starred links: 1 amine or outer side, 2 acyl side, 3 side chain; linkers in the order of their positions; H or OH if unused. Positions of bridges follow the written chain, without caps; N, C: chain ends. Non-standard residues stand in square brackets, D forms with d. Primed or numbered codes have the meaning given here. B5(16) = 2-amino-2-(pent-4-en-1-yl)hept-6-enoic acid = 2,2-bis(4-pentenyl)glycine (stitching residue), C=CCCCC(CCCC=C)(N[*:1])C(=O)[*:2]; B5(9) = 2-amino-2-(pent-4-en-1-yl)hept-6-enoic acid (2,2-bis(4-pentenyl)glycine), C=CCCCC(CCCC=C)(N[*:1])C(=O)[*:2]; Bta = N[C@@H](Cc1csc2ccccc12)C(=O)O; αAllylPro = C=CC[C@@]1(C(=O)O)CCCN1; S8 = C=CCCCCCC[C@](C)(N)C(=O)O

T1: full-length beta-Catenin (Uniprot ID P35222) (Homo sapiens (Human), UniProt P35222 2-781)
T1 construct: Tags of the recombinant protein are not described for the FP assay; also called bCat; B-Catenin
T1 sequence: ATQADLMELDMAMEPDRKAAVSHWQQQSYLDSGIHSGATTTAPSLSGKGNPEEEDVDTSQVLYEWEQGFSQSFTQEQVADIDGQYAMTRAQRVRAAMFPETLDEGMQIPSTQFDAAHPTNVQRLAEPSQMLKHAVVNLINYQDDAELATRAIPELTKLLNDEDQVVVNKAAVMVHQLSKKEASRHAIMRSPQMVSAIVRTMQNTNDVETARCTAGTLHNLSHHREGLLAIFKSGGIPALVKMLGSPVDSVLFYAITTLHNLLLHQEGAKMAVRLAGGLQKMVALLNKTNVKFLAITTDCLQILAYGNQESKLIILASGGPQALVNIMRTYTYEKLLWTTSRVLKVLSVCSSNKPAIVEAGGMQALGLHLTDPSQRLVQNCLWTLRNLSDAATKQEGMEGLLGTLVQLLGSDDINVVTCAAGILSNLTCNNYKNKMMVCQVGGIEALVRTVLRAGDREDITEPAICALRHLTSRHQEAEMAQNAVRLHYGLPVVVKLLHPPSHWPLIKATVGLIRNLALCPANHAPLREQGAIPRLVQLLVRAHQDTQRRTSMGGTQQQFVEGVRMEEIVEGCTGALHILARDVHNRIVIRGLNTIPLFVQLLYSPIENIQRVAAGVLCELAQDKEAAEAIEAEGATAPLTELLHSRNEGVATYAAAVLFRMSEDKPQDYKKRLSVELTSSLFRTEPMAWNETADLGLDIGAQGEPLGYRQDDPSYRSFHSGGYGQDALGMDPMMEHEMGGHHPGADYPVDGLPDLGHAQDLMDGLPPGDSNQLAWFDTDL

B1: I-647 (peptide)
peptide: Ac-[αAllylPro]DI[B5(9)]DELAFQ[S8]F[Bta]Q-NH2
modifications: staple 1-4, 4-11
notes: Stapled peptide composition; also called Ac-PL3-Asp-Ile-B5-Asp-Glu-Leu-Ala-Phe-Gln-S8-Phe-BztA-Gln-NH2
B2: I-651 (peptide)
peptide: Ac-[αAllylPro]DI[B5(16)]DESAFQ[S8]F[Bta]Q-NH2
modifications: staple 1-4, 4-11
notes: Stapled peptide composition; also called Ac-PL3-Asp-Ile-B5-Asp-Glu-Ser-Ala-Phe-Gln-S8-Phe-BztA-Gln-NH2
B3: I-650 (peptide)
peptide: Ac-[αAllylPro]DI[B5(16)]DEFAFQ[S8]F[Bta]Q-NH2
modifications: staple 1-4, 4-11
notes: Stapled peptide composition; also called Ac-PL3-Asp-Ile-B5-Asp-Glu-Phe-Ala-Phe-Gln-S8-Phe-BztA-Gln-NH2
B4: I-649 (peptide)
peptide: Ac-[αAllylPro]DI[B5(9)]DEFAFQ[S8]F[Bta]Q-NH2
modifications: staple 1-4, 4-11
notes: as for B3
B5: I-648 (peptide)
peptide: Ac-[αAllylPro]DI[B5(9)]DELAFQ[S8]F[Bta]Q-NH2
modifications: staple 1-4, 4-11
notes: as for B1
B6: I-637 (peptide)
peptide: XDIXDEAAFQXFXP
modifications: not fully specified; As printed: Ac-PL3-Asp-Ile-B5-Asp-Glu-Ala-Ala-Phe-Gln-S8-Phe-BztA-Pro-NH2; N-terminal Ac, C-terminal NH2; PL3 (1), B5 (4), S8 (11), BztA (13); staples PL3-B5 and B5-S8 by olefin metathesis
notes: Stapled peptide composition; also called Ac-PL3-Asp-Ile-B5-Asp-Glu-Ala-Ala-Phe-Gln-S8-Phe-BztA-Pro-NH2
B7: I-643 (peptide)
peptide: Ac-[αAllylPro]DI[B5(9)]DEAAFQ[S8]F[Bta]W-NH2
modifications: staple 1-4, 4-11
notes: Stapled peptide composition; also called Ac-PL3-Asp-Ile-B5-Asp-Glu-Ala-Ala-Phe-Gln-S8-Phe-BztA-Trp-NH2
B8: I-636 (peptide)
peptide: Ac-[αAllylPro]DI[B5(16)]DEAAFQ[S8]F[Bta]Y-NH2
modifications: staple 1-4, 4-11
notes: Stapled peptide composition; also called Ac-PL3-Asp-Ile-B5-Asp-Glu-Ala-Ala-Phe-Gln-S8-Phe-BztA-Tyr-NH2
B9: I-635 (peptide)
peptide: Ac-[αAllylPro]DI[B5(16)]DEAAFQ[S8]F[Bta]F-NH2
modifications: staple 1-4, 4-11
notes: Stapled peptide composition; also called Ac-PL3-Asp-Ile-B5-Asp-Glu-Ala-Ala-Phe-Gln-S8-Phe-BztA-Phe-NH2
B10: I-642 (peptide)
peptide: XDIXDEAAFQXFXT
modifications: not fully specified; As printed: Ac-PL3-Asp-Ile-B5-Asp-Glu-Ala-Ala-Phe-Gln-S8-Phe-BztA-Thr-NH2; N-terminal Ac, C-terminal NH2; PL3 (1), B5 (4), S8 (11), BztA (13); staples PL3-B5 and B5-S8 by olefin metathesis
notes: Stapled peptide composition; also called Ac-PL3-Asp-Ile-B5-Asp-Glu-Ala-Ala-Phe-Gln-S8-Phe-BztA-Thr-NH2
B11: I-639 (peptide)
peptide: XDIXDEAAFQXFXS
modifications: not fully specified; As printed: Ac-PL3-Asp-Ile-B5-Asp-Glu-Ala-Ala-Phe-Gln-S8-Phe-BztA-Ser-NH2; N-terminal Ac, C-terminal NH2; PL3 (1), B5 (4), S8 (11), BztA (13); staples PL3-B5 and B5-S8 by olefin metathesis
notes: Stapled peptide composition; also called Ac-PL3-Asp-Ile-B5-Asp-Glu-Ala-Ala-Phe-Gln-S8-Phe-BztA-Ser-NH2
B12: I-645 (peptide)
peptide: Ac-[αAllylPro]DI[B5(9)]DEAAFQ[S8]F[Bta]V-NH2
modifications: staple 1-4, 4-11
notes: Stapled peptide composition; also called Ac-PL3-Asp-Ile-B5-Asp-Glu-Ala-Ala-Phe-Gln-S8-Phe-BztA-Val-NH2
B13: I-644 (peptide)
peptide: Ac-[αAllylPro]DI[B5(9)]DEAAFQ[S8]F[Bta]W-NH2
modifications: staple 1-4, 4-11
notes: as for B7
B14: I-633 (peptide)
peptide: Ac-[αAllylPro]DI[B5(16)]DEAAFQ[S8]F[Bta]R-NH2
modifications: staple 1-4, 4-11
notes: Stapled peptide composition; also called Ac-PL3-Asp-Ile-B5-Asp-Glu-Ala-Ala-Phe-Gln-S8-Phe-BztA-Arg-NH2
B15: I-640 (peptide)
peptide: XDIXDEAAFQXFXS
modifications: not fully specified; As printed: Ac-PL3-Asp-Ile-B5-Asp-Glu-Ala-Ala-Phe-Gln-S8-Phe-BztA-Ser-NH2; N-terminal Ac, C-terminal NH2; PL3 (1), B5 (4), S8 (11), BztA (13); staples PL3-B5 and B5-S8 by olefin metathesis
notes: as for B11
B16: I-634 (peptide)
peptide: Ac-[αAllylPro]DI[B5(16)]DEAAFQ[S8]F[Bta]L-NH2
modifications: staple 1-4, 4-11
notes: Stapled peptide composition; also called Ac-PL3-Asp-Ile-B5-Asp-Glu-Ala-Ala-Phe-Gln-S8-Phe-BztA-Leu-NH2
B17: I-641 (peptide)
peptide: XDIXDEAAFQXFXT
modifications: not fully specified; As printed: Ac-PL3-Asp-Ile-B5-Asp-Glu-Ala-Ala-Phe-Gln-S8-Phe-BztA-Thr-NH2; N-terminal Ac, C-terminal NH2; PL3 (1), B5 (4), S8 (11), BztA (13); staples PL3-B5 and B5-S8 by olefin metathesis
notes: as for B10
B18: I-646 (peptide)
peptide: Ac-[αAllylPro]DI[B5(9)]DEAAFQ[S8]F[Bta]V-NH2
modifications: staple 1-4, 4-11
notes: as for B12

For the experiment, the target named is T1, full-length beta-Catenin (Uniprot ID …). As to the kind of experiment: fluorescence polarization competition; full-length beta-catenin, competitor 5FAM-TCF4 10-53. The procedure: The plate was incubated protected from light for 60 minutes at 20° C. prior to read. Reads were performed on a CLARIOstar plate reader (BMG Labtech) in duplicate, and data were fitted to a 1:1 binding model with hill slope using an in-house script. All provided concentrations are final concentrations.
(In general: Fluorescence polarisation rises when a labelled molecule tumbles more slowly, as on binding a larger partner.)
B1 returned an IC50 of 445 nM. This lies in the sub-micromolar range.

B2: the half-inhibitory concentration (IC50) turned out to be 186 nM. Take B3: the IC50 turned out to be 137 nM. Take B4: the half-maximal inhibitory concentration (IC50) is 209 nM. To B5 belongs 233 nM.

With B6, the 50% inhibitory concentration (IC50) amounted to 5000 nM.

Molecule B7 came in with an IC50 of 958 nM. Turning to B8, the half-maximal inhibitory concentration (IC50) was 198 nM. Compared with the last molecule, the IC50 is about 4.8-fold lower.

As to B9, the half-maximal inhibitory concentration (IC50) turned out to be 171 nM. To B10 belongs 118 nM; to B11, 109 nM; to B12, 395 nM.

For B13, the half-maximal inhibitory concentration (IC50) came out at 808 nM. This IC50 is about 2-fold higher than that of the molecule before. B14 had an IC50 of 88 nM. The value for B15 was 87 nM; that for B16 was 425 nM. Consider B17, for which the IC50 was determined as 122 nM.

Molecule B18 showed an IC50 of 461 nM. Against the preceding molecule, the IC50 is about 3.8-fold higher.
